Tested on: Escherichia coli TOP10
Experiment: shrunken log2 fold change of peptide-encoding DNA abundance (4.5 h post-induction vs induction); higher = less antimicrobial activity (less host growth inhibition)
Settings: time post-induction: 4.5 h; library: site-saturation at positions 5, 18, 19, 20
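Also: peptides expressed intracellularly from a pBAD plasmid library in pooled LB shake-flask culture, induced with 0.3% L-arabinose, DNA abundance read by NGS, three biological replicates, DESeq2 with apeglm shrinkage.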

In order of rising “shrunken log2 fold change” value:
1. RRIRHRPPRLPRPRPRPCIGPRP  -0.58
2. RRIRERPPRLPRPRPRPQSSPRP  -0.533
3. RRIRLRPPRLPRPRPRPMNTPRP  -0.524
4. RRIRYRPPRLPRPRPRPSDPPRP  -0.374
5. RRIRFRPPRLPRPRPRPRSNPRP  -0.336
6. RRIRDRPPRLPRPRPRPSNQPRP  -0.315
7. RRIRARPPRLPRPRPRPRQYPRP  -0.294
8. RRIRDRPPRLPRPRPRPPCLPRP  -0.264
9. RRIRPRPPRLPRPRPRPFYKPRP  -0.25
10. RRIRLRPPRLPRPRPRPTLEPRP  -0.244
11. RRIRRRPPRLPRPRPRPQYQPRP  -0.207
12. RRIRSRPPRLPRPRPRPLLYPRP  -0.162
13. RRIRLRPPRLPRPRPRPNAMPRP  -0.16
14. RRIRVRPPRLPRPRPRPFIRPRP  -0.148
15. RRIRDRPPRLPRPRPRPDFHPRP  -0.139
16. RRIRCRPPRLPRPRPRPNGLPRP  -0.132
17. RRIRQRPPRLPRPRPRPCRMPRP  -0.126
18. RRIRERPPRLPRPRPRPNWDPRP  -0.125
19. RRIRFRPPRLPRPRPRPSAVPRP  -0.119
20. RRIRLRPPRLPRPRPRPCQIPRP  -0.102
21. RRIRGRPPRLPRPRPRPVLHPRP  -0.0969
22. RRIRHRPPRLPRPRPRPGRQPRP  -0.0906
23. RRIRDRPPRLPRPRPRPYDTPRP  -0.0872
24. RRIRLRPPRLPRPRPRPQHGPRP  -0.0844
25. RRIRMRPPRLPRPRPRPHYVPRP  -0.0815
26. RRIRYRPPRLPRPRPRPHRRPRP  -0.0466
27. RRIRYRPPRLPRPRPRPKNRPRP  -0.0456
28. RRIRDRPPRLPRPRPRPVYRPRP  -0.0426
29. RRIRHRPPRLPRPRPRPATQPRP  -0.038
30. RRIRPRPPRLPRPRPRPEHCPRP  -0.034
31. RRIRPRPPRLPRPRPRPEWIPRP  -0.0215
32. RRIRHRPPRLPRPRPRPHGFPRP  -0.0127
33. RRIRQRPPRLPRPRPRPMNFPRP  -0.01
34. RRIRARPPRLPRPRPRPTKEPRP  0.0091
35. RRIRRRPPRLPRPRPRPMSWPRP  0.0104
36. RRIRLRPPRLPRPRPRPRFKPRP  0.0114
37. RRIRERPPRLPRPRPRPGEWPRP  0.0118
38. RRIRMRPPRLPRPRPRPITVPRP  0.0226
39. RRIRTRPPRLPRPRPRPFPRPRP  0.0242
40. RRIRSRPPRLPRPRPRPPECPRP  0.0423
41. RRIRLRPPRLPRPRPRPTEFPRP  0.0447
42. RRIRLRPPRLPRPRPRPIVGPRP  0.0604
43. RRIRKRPPRLPRPRPRPDQQPRP  0.0777
44. RRIRGRPPRLPRPRPRPCQSPRP  0.108
45. RRIRIRPPRLPRPRPRPRPEPRP  0.11
46. RRIRPRPPRLPRPRPRPACHPRP  0.111
47. RRIRGRPPRLPRPRPRPVWKPRP  0.113
48. RRIRCRPPRLPRPRPRPPFMPRP  0.114
49. RRIRTRPPRLPRPRPRPCGGPRP  0.169
50. RRIRRRPPRLPRPRPRPILPPRP  0.177
51. RRIRWRPPRLPRPRPRPMQPPRP  0.185
52. RRIRGRPPRLPRPRPRPWDIPRP  0.212
53. RRIRMRPPRLPRPRPRPVQPPRP  0.229
54. RRIRKRPPRLPRPRPRPHCDPRP  0.266
55. RRIRFRPPRLPRPRPRPPMAPRP  0.277
56. RRIRCRPPRLPRPRPRPRFGPRP  0.316
57. RRIRARPPRLPRPRPRPALRPRP  0.363
58. RRIRDRPPRLPRPRPRPVVFPRP  0.457
59. RRIRQRPPRLPRPRPRPPHGPRP  1.06
60. RRIRNRPPRLPRPRPRPMRSPRP  1.09
